Source: patent publication US20100215619A1

What was measured:
HLA-DRB1*0101 (human) = assay: competition binding; conditions: modification not given
HLA-DRB4*0101 (human) = assay: competition binding; conditions: modification not given

| Binder | IC50 (HLA-DRB1*0101 (human)) [nM] | IC50 (HLA-DRB4*0101 (human)) [µM] |
| --- | --- | --- |
| GTLRGYYNQSEAGSH [p15] | 456 |  |
| VGYVDDTQFVRFDSD [p6] |  | 90 |
